“And” between values parts separate entries of the source, which are not always exact repeats. Equal values may be shown once.
Experiments:
[1] = target: stable hexameric full-length FliD mutant FliD_(1–474(I167C/D253C)), purified recombinant protein (Pseudomonas aeruginosa PAO1) (UniProt Q9K3C5); assay: SDS-PAGE under non-reducing conditions; purified FliD1–474(I167C/D253C), reducing against non-reducing conditions
[2] = target: stable hexameric full-length FliD mutant FliD_(1–474(I167C/D253C)), purified recombinant protein (Pseudomonas aeruginosa PAO1) (UniProt Q9K3C5); assay: SAXS; 30 mM Tris pH 8.0, 80 mM NaCl; three concentrations of each protein; envelopes by DAMMIF with superimposed crystal structures
[3] = target: full-length FliD_(1–474) from the P. aeruginosa PAO1 strain (Pseudomonas aeruginosa PAO1) (UniProt Q9K3C5); assay: cross-linking; about 0.4 mg/mL protein, 20 mM EDC and 20 mM NHS, various time points; silver-stained SDS-PAGE
[4] = target: full-length FliD_(1–474) from the P. aeruginosa PAO1 strain (Pseudomonas aeruginosa PAO1) (UniProt Q9K3C5); assay: AUC; sedimentation velocity, 20°C, 30 mM Tris, 80 mM NaCl, pH 8.0; 295 μM FliD78–405, 124 μM FliD78–273, 168 μM FliD1–474
[5] = target: full-length FliD_(1–474) from the P. aeruginosa PAO1 strain (Pseudomonas aeruginosa PAO1) (UniProt Q9K3C5); assay: AUC; sedimentation velocity, 4 μM FliD1–474 in 30 mM Tris, 80 mM NaCl, pH 8.0
[6] = target: full-length FliD_(1–474) from the P. aeruginosa PAO1 strain (Pseudomonas aeruginosa PAO1) (UniProt Q9K3C5); assay: AUC; sedimentation velocity, 20°C, 20 mM sodium citrate, 80 mM NaCl, pH 5.0; 325 μM FliD78–405, 124 μM FliD78–273, 168 μM FliD1–474
[7] = target: FliD lacking the C-terminal coiled-coil domain (FliD_(1–405)) from the P. aeruginosa PAO1 strain (Pseudomonas aeruginosa PAO1) (UniProt Q9K3C5); assay: cross-linking; about 0.4 mg/mL protein, 20 mM EDC and 20 mM NHS, various time points; silver-stained SDS-PAGE
[8] = target: FliD_(78–405) from the P. aeruginosa PAO1 strain, made as a GST fusion and cleaved (Pseudomonas aeruginosa PAO1) (UniProt Q9K3C5); assay: as above
[9] = target: FliD_(78–405) from the P. aeruginosa PAO1 strain, made as a GST fusion and cleaved (Pseudomonas aeruginosa PAO1) (UniProt Q9K3C5); assay: AUC; sedimentation velocity, 20°C, 30 mM Tris, 80 mM NaCl, pH 8.0; 295 μM FliD78–405, 124 μM FliD78–273, 168 μM FliD1–474
[10] = target: FliD_(78–405) from the P. aeruginosa PAO1 strain, made as a GST fusion and cleaved (Pseudomonas aeruginosa PAO1) (UniProt Q9K3C5); assay: negative stain EM with class averaging; 2% uranyl acetate, about 3500 particles, class averages in EMAN2
[11] = target: FliD_(78–405) from the P. aeruginosa PAO1 strain, made as a GST fusion and cleaved (Pseudomonas aeruginosa PAO1) (UniProt Q9K3C5); assay: AUC; sedimentation velocity, 20°C, 20 mM sodium citrate, 80 mM NaCl, pH 5.0; 325 μM FliD78–405, 124 μM FliD78–273, 168 μM FliD1–474
[12] = target: FliD_(78–405) from the P. aeruginosa PAO1 strain, made as a GST fusion and cleaved (Pseudomonas aeruginosa PAO1) (UniProt Q9K3C5); assay: SAXS; 30 mM Tris pH 8.0, 80 mM NaCl; three concentrations of each protein; envelopes by DAMMIF with superimposed crystal structures
[13] = target: head domain-only FliD (FliD_(78–273)) from the P. aeruginosa PAO1 strain (Pseudomonas aeruginosa PAO1) (UniProt Q9K3C5); assay: cross-linking; about 0.4 mg/mL protein, 20 mM EDC and 20 mM NHS, various time points; silver-stained SDS-PAGE
[14] = target: head domain-only FliD (FliD_(78–273)) from the P. aeruginosa PAO1 strain (Pseudomonas aeruginosa PAO1) (UniProt Q9K3C5); assay: AUC; sedimentation velocity, 20°C, 20 mM sodium citrate, 80 mM NaCl, pH 5.0; 325 μM FliD78–405, 124 μM FliD78–273, 168 μM FliD1–474
[15] = target: head domain-only FliD (FliD_(78–273)) from the P. aeruginosa PAO1 strain (Pseudomonas aeruginosa PAO1) (UniProt Q9K3C5); assay: SAXS; 30 mM Tris pH 8.0, 80 mM NaCl; three concentrations of each protein; envelopes by DAMMIF with superimposed crystal structures
[16] = target: FliD_(78–405) from the P. aeruginosa PAO1 strain, with N-terminal His6-tag (crystallized construct) (Pseudomonas aeruginosa PAO1) (UniProt Q9K3C5); assay: crystal structure; His6-FliD78–405 crystals grown in 0.8 M NaK Tartrate, 0.1 M Hepes pH 7.5; 2.2 Å; P6 space group
[17] = target: FliD lacking the N-terminal coiled-coil domain (FliD_(78–474)) from the P. aeruginosa PAO1 strain (Pseudomonas aeruginosa PAO1) (UniProt Q9K3C5); assay: cross-linking; about 0.4 mg/mL protein, 20 mM EDC and 20 mM NHS, various time points; silver-stained SDS-PAGE
[18] = target: FliD_(1–474(I167C/D253C)) produced by Pseudomonas (complementation strain ΔfliD/fliD_(1–474(I167C/D253C))) (Pseudomonas aeruginosa PAO1) (UniProt Q9K3C5); assay: Western blot after non-reducing SDS-PAGE; flagella sheared off live bacteria, supernatant concentrated; detected with anti-FliD scFv-Fc SH1579-B7

Substance: stable hexameric full-length FliD mutant FliD_(1–474(I167C/D253C)), purified recombinant protein (from UniProt Q9K3C5 1-474) (natural protein)
- stoichiometry N [1]: 6
- stoichiometry N [2]: 6

Substance: full-length FliD_(1–474) from the P. aeruginosa PAO1 strain (from UniProt Q9K3C5 1-474) (natural protein)
- stoichiometry N [3]: < 6
- stoichiometry N [4]: 4 and 6
- stoichiometry N [5]: 2
- stoichiometry N [6]: 4 and 6

Substance: FliD lacking the C-terminal coiled-coil domain (FliD_(1–405)) from the P. aeruginosa PAO1 strain (from UniProt Q9K3C5 1-405) (domain or fragment)
- stoichiometry N [7]: 2

Substance: FliD_(78–405) from the P. aeruginosa PAO1 strain, made as a GST fusion and cleaved (from UniProt Q9K3C5 78-405) (domain or fragment)
- stoichiometry N [8]: < 12
- stoichiometry N [9]: 12
- stoichiometry N [10]: 6
- stoichiometry N [11]: 12
- stoichiometry N [12]: 12

Substance: head domain-only FliD (FliD_(78–273)) from the P. aeruginosa PAO1 strain (from UniProt Q9K3C5 78-273) (domain or fragment)
- stoichiometry N [13]: 2
- stoichiometry N [14]: 2
- stoichiometry N [15]: 2

Substance: FliD_(78–405) from the P. aeruginosa PAO1 strain, with N-terminal His6-tag (crystallized construct) (from UniProt Q9K3C5 78-405) (domain or fragment)
- stoichiometry N [16]: 6 and 12

Substance: FliD lacking the N-terminal coiled-coil domain (FliD_(78–474)) from the P. aeruginosa PAO1 strain (from UniProt Q9K3C5 78-474) (domain or fragment)
- stoichiometry N [17]: 2

Substance: FliD_(1–474(I167C/D253C)) produced by Pseudomonas (complementation strain ΔfliD/fliD_(1–474(I167C/D253C))) (from UniProt Q9K3C5 1-474) (natural protein)
- stoichiometry N [18]: 6

Source: paper PMC5072837
